Molecular target: recombinant mature human CD73 (soluble CD73, GPI anchor signal peptide replaced by a C-terminal 6x-histidine tag) (human)
Test: SEC-MALS

stoichiometry N: 2
Substance: recombinant mature human CD73 (soluble CD73, GPI anchor signal peptide replaced by a C-terminal 6x-histidine tag) (enzyme)

— PMC5037986
